Consider one molecule from paper PMC11100465, “EFhd2 co-aggregates with monomeric and filamentous tau in vitro” (Frontiers in Neuroscience, 2024).

The target in this assay is T1, full-length human tau (hTau40) (human, UniProt P10636-8 1-441).
T1 construct: plasmid PT7CHT40; The same construct was used as monomer (no inducer) and as filaments or oligomers induced with 75 uM arachidonic acid; No tag removal is described; also called hTau40^m (incubated without inducer, monomeric); hTau40^ARA (incubated with arachidonic acid, filaments and oligomers); source: E. coli BL21, purified (boiled lysate, HIS-select Nickel resin)
T1 sequence (P10636 other isoform, or with tags, fused parts or gaps): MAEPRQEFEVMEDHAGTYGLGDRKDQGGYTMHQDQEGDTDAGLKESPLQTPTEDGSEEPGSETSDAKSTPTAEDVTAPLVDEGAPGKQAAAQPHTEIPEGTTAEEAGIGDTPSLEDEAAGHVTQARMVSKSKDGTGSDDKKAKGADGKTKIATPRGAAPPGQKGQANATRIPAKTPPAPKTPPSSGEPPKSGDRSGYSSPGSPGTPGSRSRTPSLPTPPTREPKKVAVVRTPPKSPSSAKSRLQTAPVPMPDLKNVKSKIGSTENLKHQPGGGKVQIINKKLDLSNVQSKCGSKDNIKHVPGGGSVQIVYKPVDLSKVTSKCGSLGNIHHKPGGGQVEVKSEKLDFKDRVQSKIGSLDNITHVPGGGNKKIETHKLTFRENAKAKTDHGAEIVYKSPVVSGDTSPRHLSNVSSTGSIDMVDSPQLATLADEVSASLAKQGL
Put plainly: ELISA; nondenaturing sandwich ELISA; Tau13 capture antibody, anti-EFhd2 detection antibody; 2 uM hEFhd2 and 2 uM hTau40 co-incubated overnight at room temperature without arachidonic acid (hTau40^m/hEFhd2), then diluted in 1X PBS. To be noted: both partners purified. On the technique in general: In an ELISA, binding on a coated surface is turned into a signal by an enzyme label.

B1: recombinant human EFhd2 (natural protein, UniProt Q96C19 1-240, looked up)
chain: MATDELATKLSRRLQMEGEGGGETPEQPGLNGAAAAAAGAPDEAAEALGSADCELSAKLLRRADLNQGIGEPQSPSRRVFNPYTEFKEFSRKQIKDMEKMFKQYDAGRDGFIDLMELKLMMEKLGAPQTHLGLKNMIKEVDEDFDSKLSFREFLLIFRKAAAGELQEDSGLCVLARLSEIDVSSEGVKGAKSFFEAKVQAINVSSRFEEEIKAEQEERKKQAEEMKQRKAAFKELQSTFK
notes: wild type human EFhd2; No tag removal is described; also called hEFhd2; EF-hand domain 2 protein; source: E. coli BL21 (DE3), purified (HIS-select Nickel resin)
For the molecule B1, the binding result is “binds”.
